From the supplement of paper PMC11246515
± gives the standard deviation of the averaged measurements.

Experiment: total protein half-life in vivo (active degradation + dilution); higher = more stable protein
[1] = E. coli NCM3722 delta-clpP delta-lon delta-hslV, growth: N-lim chemostat, doubling time 6 h
[2] = E. coli NCM3722 delta-clpP, growth: N-lim chemostat, doubling time 6 h
[3] = E. coli NCM3722 delta-hslV, growth: N-lim chemostat, doubling time 6 h
[4] = E. coli NCM3722 delta-lon, growth: N-lim chemostat, doubling time 6 h
[5] = E. coli NCM3722 delta-smpB, growth: N-lim chemostat, doubling time 6 h
[6] = wild type E. coli NCM3722, growth: C-lim chemostat, doubling time 3 h
[7] = wild type E. coli NCM3722, growth: C-lim chemostat, doubling time 6 h
[8] = wild type E. coli NCM3722, growth: C-lim chemostat, doubling time 12 h
[9] = wild type E. coli NCM3722, growth: N-lim chemostat, doubling time 6 h
[10] = wild type E. coli NCM3722, growth: N-lim chemostat, doubling time 12 h
[11] = wild type E. coli NCM3722, growth: P-lim chemostat, doubling time 6 h
[12] = wild type E. coli NCM3722, growth: P-lim chemostat, doubling time 12 h

Sequence | total protein half-life in vivo [1] [h] | total protein half-life in vivo [2] [h] | total protein half-life in vivo [3] [h] | total protein half-life in vivo [4] [h] | total protein half-life in vivo [5] [h] | total protein half-life in vivo [6] [h] | total protein half-life in vivo [7] [h] | total protein half-life in vivo [8] [h] | total protein half-life in vivo [9] [h] | total protein half-life in vivo [10] [h] | total protein half-life in vivo [11] [h] | total protein half-life in vivo [12] [h]
MKNVGDLMQRLQKMMPAHIKPAFKTGEELLAWQKEQGAIRSAALERENRAMKMQRTFNRSGIRPLHQNCSFENYRVECEGQMNALSKARQYVEEFDGNIASFIFSGKPGTGKNHLAAAICNELLLRGKSVLIITVADIMSAMKDTFRNSGTSEEQLLNDLSNVDLLVIDEIGVQTESKYEKVIINQIVDRRSSSKRPTGMLTNSNMEEMTKLLGERVMDRMRLGNSLWVIFNWDSYRSRVTGKEY [P0AEF0] | 3.95 ± 0.25 | 2.75 ± 0.059 | 2.11 ± 0.34 | 2.64 ± 0.32 | 2.33 ± 0.07 | 2.05 ± 0.26 | 4.67 ± 0.49 | 5.08 ± 0.67 | 2.18 ± 0.26 | 3.42 ± 0.18 | 3.49 ± 0.45 | 7.41 ± 2.5
MATTHLDVCAVVPAAGFGRRMQTECPKQYLSIGNQTILEHSVHALLAHPRVKRVVIAISPGDSRFAQLPLANHPQITVVDGGDERADSVLAGLKAAGDAQWVLVHDAARPCLHQDDLARLLALSETSRTGGILAAPVRDTMKRAEPGKNAIAHTVDRNGLWHALTPQFFPRELLHDCLTRALNEGATITDEASALEYCGFHPQLVEGRADNIKVTRPEDLALAEFYLTRTIHQENT | 4.65 ± 0.39 | 5.096 ± 0.047 | 5.2 ± 1.2 | 4.6 ± 2.6 | 4.66 ± 0.47 | 3.29 ± 0.43 | 6.7 ± 1.2 | 10.6 ± 1.2 | 5.66 ± 1.1 | 8.34 ± 2 | – | 11.96 ± 0.058
MENKYSRLQISIHWLVFLLVIAAYCAMEFRGFFPRSDRPLINMIHVSCGISILVLMVVRLLLRLKYPTPPIIPKPKPMMTGLAHLGHLVIYLLFIALPVIGLVMMYNRGNPWFAFGLTMPYASEANFERVDSLKSWHETLANLGYFVIGLHAAAALAHHYFWKDNTLLRMMPRKRS [P0ABE5] | 7.28 | 5.78 | 6.32 | – | 5.9 | 2.81 ± 0.06 | 5.31 | 14.8 | – | 10.6 | – | 11.9
MFRLNPFVRVGLCLSAISCAWPVLAVDDDGETMVVTASSVEQNLKDAPASISVITQEDLQRKPVQNLKDVLKEVPGVQLTNEGDNRKGVSIRGLDSSYTLILVDGKRVNSRNAVFRHNDFDLNWIPVDSIERIEVVRGPMSSLYGSDALGGVVNIITKKIGQKWSGTVTVDTTIQEHRDRGDTYNGQFFTSGPLIDGVLGMKAYGSLAKREKDDPQNSTTTDTGETPRIEGFSSRDGNVEFAWTPNQNHDFTAGYGFDRQDRDSDSLDKNRLERQNYSVSHNGRWDYGTSELKYYGEKVENKNPGNSSPITSESNTVDGKYTLPLTAINQFLTVGGEWRHDKLSDAVNLTGGTSSKTSASQYALFVEDEWRIFEPLALTTGVRMDDHETYGEHWSPRAYLVYNATDTVTVKGGWATAFKAPSLLQLSPDWTSNSCRGACKIVGSPDLKPETSESWELGLYYMGEEGWLEGVESSVTVFRNDVKDRISISRTSDVNAAPGYQNFVGFETGANGRRIPVFSYYNVNKARIQGVETELKIPFNDEWKLSINYTYNDGRDVSNGENKPLSDLPFHTANGTLDWKPLALEDWSFYVSGHYTGQKRADSATAKTPGGYTIWNTGAAWQVTKDVKLRAGVLNLGDKDLSRDDYSYNEDGRRYFMAVDYRF | – | – | – | – | – | 3.86 ± 0.058 | – | – | – | > 16 | – | > 16
MIRNVLLAFMICSGMTLLGGCSSVMSHTGGKEGTYPGTRASATMIGDDETNWGTKSLAILDMPFTAVMDTLLLPWDVFRKDSSVRSRVEKSEANAQATNAVIPPARMPDN [P0ADM4] | 5.58 ± 0.24 | 6 ± 0.66 | 5.46 ± 0.49 | 5.9 ± 0.34 | 4.43 ± 0.12 | 2.6 ± 0.12 | 4.71 ± 0.37 | 8.87 ± 1.3 | 5.84 ± 0.094 | 11 ± 1.4 | 4.8 ± 0.24 | 11.1 ± 0.31
MSITLSDSAAARVNTFLANRGKGFGLRLGVRTSGCSGMAYVLEFVDEPTPEDIVFEDKGVKVVVDGKSLQFLDGTQLDFVKEGLNEGFKFTNPNVKDECGCGESFHV [P0AAC8] | 3.72 ± 0.52 | 2.47 ± 1.5 | 0.964 ± 0.11 | 2.06 ± 0.1 | 0.889 ± 0.077 | 1.2 ± 0.086 | 1.62 ± 0.07 | 2.08 ± 0.36 | 1.14 ± 0.11 | 1.26 ± 0.022 | 1.36 ± 0.36 | 2.42 ± 0.75
MELIFLGTSAGVPTRTRNVTAILLNLQHPTQSGLWLFDCGEGTQHQLLHTAFNPGKLDKIFISHLHGDHLFGLPGLLCSRSMSGIIQPLTIYGPQGIREFVETALRISGSWTDYPLEIVEIGAGEILDDGLRKVTAYPLEHPLECYGYRIEEHDKPGALNAQALKAAGVPPGPLFQELKAGKTITLEDGRQINGADYLAAPVPGKALAIFGDTGPCDAALDLAKGVDVMVHEATLDITMEAKANSRGHSSTRQAATLAREAGVGKLIITHVSSRYDDKGCQHLLRECRSIFPATELANDFTVFNV [P0A8V0] | 4.1 ± 0.62 | 5.44 ± 1 | 4.51 ± 0.3 | 5.43 ± 0.51 | 3.918 ± 0.011 | 3.01 ± 0.12 | 5.64 ± 0.69 | 10 ± 0.64 | 3.93 ± 0.28 | 7.42 ± 0.32 | 5.54 ± 1.4 | 11.3 ± 2.1
MEKDYLRISSTVLVSLLFGLALVLVNSWFNQPGVEEVVPRSTYLMVMIALFFIDTVAFIFMQLYFIYDRRQFSNCVLSLAFLSCLIYFVITVIIIQQIIEERLTSSVVQNDIAIYYLFRQMSLCILIFLALVNKVSENTKQRNLFSKKMTLCISLFFVFGGPIVAHILSSHYESYNLHIAELTNENGQVVWKASYVTIMIFMWLTLLSVNLYFNGLRYDIWNGVTVIAFCAVLYNISLLFMSRYSVSTWYISRTIEVVSKLTVMVIFMCHIFSALRVTKNIAHRDPLTNIFNRNYFFNELTVQSASAQKTPYCVMIMDIDHFKKVNDTWGHPVGDQVIKTVVNIIGKSIRPDDLLARVGGEEFGVLLTDIDTERAKALAERIRENVERLTGDNPEYAIPQKVTISIGAVVTQENALNPNEIYRLADNALYEAKETGRNKVVVRDVVNFCESP | – | – | – | – | – | 2.9 | – | – | – | – | – | –
